Measured values taken from the supplement of paper PMC10567573.

B1: TPD52L2 (parent)
chain: EAEEEELRAELTKVEEEIVTLRQV

Variants of: B1
Experiment: protein stability index of a GFP-peptide fusion (GPS, HEK-293T) (PSI 1-6); higher = more stable
Conditions: c terminus: a fixed tail appended
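Note: lentivirally expressed fusions sorted by FACS into six bins by GFP to DsRed ratio, PSI derived from sequencing read proportions per bin multiplied by bin number.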

Row | Variant | protein stability index
1 | EAEEEELRAILTKVEEEIVTLRQV | 2
2 | EAEEEELRAKLTKVEEEIVTLRQV | 4.91
3 | EAEEEELRALLTKVEEEIVTLRQV | 2.96
4 | EAEEEELRAMLTKVEEEIVTLRQV | 3.3
5 | EAEEEELRANLTKVEEEIVTLRQV | 4.91
6 | EAEEEELRAPLTKVEEEIVTLRQV | 5.46
7 | EAEEEELRAQLTKVEEEIVTLRQV | 3.98
8 | EAEEEELRARLTKVEEEIVTLRQV | 4.11
9 | EAEEEELRASLTKVEEEIVTLRQV | 3.49
10 | EAEEEELRATLTKVEEEIVTLRQV | 3.21
11 | EAEEEELRAVLTKVEEEIVTLRQV | 2.72
12 | EAEEEELRAYLTKVEEEIVTLRQV | 4.05
13 | EAEEEELRAEATKVEEEIVTLRQV | 5.8
14 | EAEEEELRAECTKVEEEIVTLRQV | 5.5
15 | EAEEEELRAEDTKVEEEIVTLRQV | 5.92
16 | EAEEEELRAEETKVEEEIVTLRQV | 4.83
17 | EAEEEELRAEFTKVEEEIVTLRQV | 5.09
18 | EAEEEELRAEGTKVEEEIVTLRQV | 5.38
19 | EAEEEELRAEHTKVEEEIVTLRQV | 5.43
20 | EAEEEELRAEITKVEEEIVTLRQV | 4.98
21 | EAEEEELRAEKTKVEEEIVTLRQV | 5.55
22 | EAEEEELRAEMTKVEEEIVTLRQV | 3.99
23 | EAEEEELRAENTKVEEEIVTLRQV | 5.25
24 | EAEEEELRAEPTKVEEEIVTLRQV | 5.64

Row | Variant | protein stability index
25 | EAEEEELRAEQTKVEEEIVTLRQV | 5.67
26 | EAEEEELRAERTKVEEEIVTLRQV | 5.22
27 | EAEEEELRAESTKVEEEIVTLRQV | 5.65
28 | EAEEEELRAETTKVEEEIVTLRQV | 5.33
29 | EAEEEELRAEVTKVEEEIVTLRQV | 5.2
30 | EAEEEELRAEWTKVEEEIVTLRQV | 5
31 | EAEEEELRAEYTKVEEEIVTLRQV | 5.51
32 | EAEEEELRAELAKVEEEIVTLRQV | 3.35
33 | EAEEEELRAELCKVEEEIVTLRQV | 3.63
34 | EAEEEELRAELDKVEEEIVTLRQV | 4.91
35 | EAEEEELRAELEKVEEEIVTLRQV | 4.22
36 | EAEEEELRAELFKVEEEIVTLRQV | 3.83
37 | EAEEEELRAELGKVEEEIVTLRQV | 4.8
38 | EAEEEELRAELHKVEEEIVTLRQV | 3.51
39 | EAEEEELRAELIKVEEEIVTLRQV | 3.51
40 | EAEEEELRAELKKVEEEIVTLRQV | 3.75
41 | EAEEEELRAELLKVEEEIVTLRQV | 3.08
42 | EAEEEELRAELMKVEEEIVTLRQV | 2.65
43 | EAEEEELRAELNKVEEEIVTLRQV | 3.9
44 | EAEEEELRAELPKVEEEIVTLRQV | 5.06
45 | EAEEEELRAELQKVEEEIVTLRQV | 3.87
46 | EAEEEELRAELRKVEEEIVTLRQV | 3.12
47 | EAEEEELRAELSKVEEEIVTLRQV | 3.75
48 | EAEEEELRAELVKVEEEIVTLRQV | 4.06

Row | Variant | protein stability index
49 | EAEEEELRAELWKVEEEIVTLRQV | 2.1
50 | EAEEEELRAELYKVEEEIVTLRQV | 3.39
51 | EAEEEELRAELTAVEEEIVTLRQV | 3.96
52 | EAEEEELRAELTCVEEEIVTLRQV | 5.11
53 | EAEEEELRAELTDVEEEIVTLRQV | 5.76
54 | EAEEEELRAELTEVEEEIVTLRQV | 5.82
55 | EAEEEELRAELTFVEEEIVTLRQV | 4.25
56 | EAEEEELRAELTGVEEEIVTLRQV | 5.18
57 | EAEEEELRAELTHVEEEIVTLRQV | 5.04
58 | EAEEEELRAELTIVEEEIVTLRQV | 3.5
59 | EAEEEELRAELTLVEEEIVTLRQV | 4.06
60 | EAEEEELRAELTMVEEEIVTLRQV | 4.18
61 | EAEEEELRAELTNVEEEIVTLRQV | 5.26
62 | EAEEEELRAELTPVEEEIVTLRQV | 5.55
63 | EAEEEELRAELTQVEEEIVTLRQV | 4.55
64 | EAEEEELRAELTRVEEEIVTLRQV | 3.27
65 | EAEEEELRAELTSVEEEIVTLRQV | 4.54
66 | EAEEEELRAELTTVEEEIVTLRQV | 5.15
67 | EAEEEELRAELTVVEEEIVTLRQV | 4.33
68 | EAEEEELRAELTWVEEEIVTLRQV | 4.21
69 | EAEEEELRAELTYVEEEIVTLRQV | 4.08
70 | EAEEEELRAELTKAEEEIVTLRQV | 4.05
71 | EAEEEELRAELTKCEEEIVTLRQV | 3.54
72 | EAEEEELRAELTKDEEEIVTLRQV | 4.74

Row | Variant | protein stability index
73 | EAEEEELRAELTKEEEEIVTLRQV | 5.67
74 | EAEEEELRAELTKFEEEIVTLRQV | 5.01
75 | EAEEEELRAELTKGEEEIVTLRQV | 3.76
76 | EAEEEELRAELTKHEEEIVTLRQV | 5.7
77 | EAEEEELRAELTKIEEEIVTLRQV | 3.57
78 | EAEEEELRAELTKKEEEIVTLRQV | 5.72
79 | EAEEEELRAELTKLEEEIVTLRQV | 3.82
80 | EAEEEELRAELTKMEEEIVTLRQV | 4.43
81 | EAEEEELRAELTKNEEEIVTLRQV | 5.33
82 | EAEEEELRAELTKPEEEIVTLRQV | 5.75
83 | EAEEEELRAELTKQEEEIVTLRQV | 5.59
84 | EAEEEELRAELTKREEEIVTLRQV | 5.35
85 | EAEEEELRAELTKSEEEIVTLRQV | 4.42
86 | EAEEEELRAELTKTEEEIVTLRQV | 4.37
87 | EAEEEELRAELTKWEEEIVTLRQV | 4.05
88 | EAEEEELRAELTKYEEEIVTLRQV | 5.05
89 | EAEEEELRAELTKVAEEIVTLRQV | 4.41
90 | EAEEEELRAELTKVCEEIVTLRQV | 3.94
91 | EAEEEELRAELTKVDEEIVTLRQV | 5.55
92 | EAEEEELRAELTKVFEEIVTLRQV | 3.61
93 | EAEEEELRAELTKVGEEIVTLRQV | 5.31
94 | EAEEEELRAELTKVHEEIVTLRQV | 5.12
